In experiment [1] the target is wild-type ferritin from Pyrococcus furiosus (WT-PfFtn) (Pyrococcus furiosus) (UniProt Q8U2T8). As to the kind of experiment: native gel or EMSA; native gel electrophoresis of apo protein; WT-PfFtn 5 μM monomer, R117A-PfFtn 4.3 or 80 μM monomer. A general note: In EMSA bound probe runs differently from free probe, usually more slowly.
For experiment [2], the target named is R117A mutant of ferritin from Pyrococcus furiosus (R117A-PfFtn) (Pyrococcus furiosus) (UniProt Q8U2T8).

A word on the stoichiometry N: it is the number of molecules, sites or subunits per partner or assembly.

Turning to “wild-type ferritin from Pyrococcus furiosus (WT-PfFtn) (from UniProt Q8U2T8 1-174) (natural protein)”, the stoichiometry N in experiment [1] was 24.
On to “R117A mutant of ferritin from Pyrococcus furiosus (R117A-PfFtn) (from UniProt Q8U2T8 1-174) (natural protein)”, for which the rate of Fe(II) oxidation (Fe(III) formation at 315 nm after addition of two Fe(II) per subunit), R117A-PfFtn against WT-PfFtn in experiment [2] is greater than 100 fold.

Source of the values: paper PMC4646333.
